Test results as given in the supplement of paper PMC10724198.
± gives the standard deviation of the averaged measurements.

Columns and labels:
Saccharomyces cerevisiae [1] = assay: protein stability index of tFT-peptide fusion (C-terminal peptide) (PSI (0-1 scale)); higher = more stable (slower turnover)
Description: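 MPS profiling in S. cerevisiae of the tFT-X12 degron library: putative degron peptides plus stable controls, 12 aa, fused to the C-terminus of a sfGFP-mCherry timer. Cells are FACS-sorted into 8 mCherry/sfGFP bins and deep-sequenced. PSI runs from 0 (unstable) to 1 (stable). Backgrounds are wild type, das1Δ and doa10Δ at 30 °C, and wild type, das1Δ, cdc34-1 and cdc53-1 at 37 °C; 2-3 technical replicates each.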

Saccharomyces cerevisiae [2] = assay: as above; conditions: genetic background: wild type; temperature: 30 C
[3] = genetic background: cdc34-1, temperature: 37 C
[4] = genetic background: cdc53-1, temperature: 37 C
[5] = genetic background: das1 deletion, temperature: 30 C
[6] = genetic background: das1 deletion, temperature: 37 C
[7] = genetic background: doa10 deletion, temperature: 30 C
[8] = genetic background: wild type, temperature: 30 C
[9] = genetic background: wild type, temperature: 37 C
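Further: PSI is a weighted mean of sequencing reads over stability bins, variants kept only with over 10 reads, mCherry proximal and sfGFP distal, peptide attached via GGGS linker.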

| Sequence | protein stability index (Saccharomyces cerevisiae [1]; [3]) | protein stability index (Saccharomyces cerevisiae [1]; [4]) | protein stability index (Saccharomyces cerevisiae [1]; [5]) | protein stability index (Saccharomyces cerevisiae [1]; [6]) | protein stability index (Saccharomyces cerevisiae [1]; [7]) | protein stability index (Saccharomyces cerevisiae [1]; [8]) | protein stability index (Saccharomyces cerevisiae [1]; [9]) | protein stability index (Saccharomyces cerevisiae [2]) |
| --- | --- | --- | --- | --- | --- | --- | --- | --- |
| CPMFVKFFFCLY | 0.448 ± 0.027 | 0.462 ± 0.011 | 0.465 ± 0.036 | 0.508 ± 0.019 | 0.479 ± 0.013 | 0.41 ± 0.021 | 0.481 ± 0.0055 | 0.405 ± 0.024 |
| CRGLSWRMITCL | 0.493 ± 0.035 | 0.59 ± 0.049 | 0.484 ± 0.016 | 0.6459 ± 0.00088 | 0.125 ± 0.011 | 0.14 ± 0.015 | 0.176 ± 0.02 | 0.225 ± 0.012 |
| CRLRYSILWFRL | 0.104 ± 0.024 | 0.09746 ± 0.00035 | 0.245 ± 0.033 | 0.309 ± 0.032 | 0.201 ± 0.016 | 0.124 ± 0.017 | 0.155 ± 0.006 | 0.152 ± 0.017 |
| CRRQLKVLKSMS | 0.581 ± 0.072 | 0.697 ± 0.025 | 0.653 ± 0.023 | 0.6892 ± 0.0061 | 0.148 ± 0.021 | 0.151 ± 0.03 | 0.31 ± 0.013 | 0.242 ± 0.039 |
| CSFHFSLFFLRV | 0.3793 ± 0.0022 | 0.426 ± 0.048 | 0.356 ± 0.027 | 0.4589 ± 0.0031 | 0.485 ± 0.042 | 0.332 ± 0.014 | 0.422 ± 0.0073 | 0.334 ± 0.037 |
| CSRVVGLFFLVV | 0.5355 ± 0.0037 | 0.62 ± 0.019 | 0.427 ± 0.04 | 0.649 ± 0.042 | 0.371 ± 0.0081 | 0.413 ± 0.033 | 0.604 ± 0.016 | 0.432 ± 0.033 |
| CVCLWCFLVWAR | 0.307 ± 0.018 | 0.391 ± 0.029 | 0.259 ± 0.025 | 0.4581 ± 0.0023 | 0.259 ± 0.013 | 0.246 ± 0.027 | 0.436 ± 0.017 | 0.384 ± 0.016 |
| CVCPFCVWVSCL | 0.598 ± 0.066 | 0.744 ± 0.054 | 0.51 ± 0.027 | 0.752 ± 0.0091 | 0.242 ± 0.0047 | 0.263 ± 0.032 | 0.4205 ± 0.0029 | 0.433 ± 0.081 |
| CVSFFRCLFLIV | 0.217 ± 0.0061 | 0.231 ± 0.019 | 0.302 ± 0.028 | 0.3805 ± 0.00051 | 0.193 ± 0.0083 | 0.144 ± 0.013 | 0.194 ± 0.017 | 0.168 ± 0.0043 |
| CWYVCSFWPYVV | 0.366 ± 0.061 | 0.6476 ± 0.0021 | 0.548 ± 0.022 | 0.69 ± 0.0077 | 0.0885 ± 0.0085 | 0.089 ± 0.027 | 0.0762 ± 0.016 | 0.174 ± 0.013 |
| DAGSSYRFFRFI | 0.693 ± 0.071 | 0.755 ± 0.011 | 0.661 ± 0.011 | 0.739 ± 0.0078 | 0.315 ± 0.0095 | 0.344 ± 0.01 | 0.578 ± 0.0081 | 0.425 ± 0.022 |
| DFFTSFSLFFFL | 0.674 ± 0.028 | 0.7814 ± 0.0048 | 0.635 ± 0.036 | 0.736 ± 0.008 | 0.638 ± 0.051 | 0.636 ± 0.018 | 0.701 ± 0.008 | 0.0727 ± 0.039 |
| DLIGSVRRLFCV | 0.651 ± 0.042 | 0.725 ± 0.013 | 0.621 ± 0.014 | 0.728 ± 0.017 | 0.18 ± 0.0082 | 0.214 ± 0.0082 | 0.303 ± 0.0047 | 0.27 ± 0.042 |
| DLLKAILKIKSL | 0.579 ± 0.095 | 0.704 ± 0.05 | 0.6279 ± 0.0037 | 0.7476 ± 0.0011 | 0.104 ± 0.0099 | 0.0962 ± 0.017 | 0.162 ± 0.049 | 0.171 ± 0.054 |
| DLQTVGLTRFIV | 0.62 ± 0.031 | 0.7362 ± 0.0061 | 0.621 ± 0.022 | 0.714 ± 0.011 | 0.149 ± 0.015 | 0.193 ± 0.0044 | 0.353 ± 0.031 | 0.236 ± 0.071 |
| DLRRYRTLIPCK | 0.38 ± 0.014 | 0.425 ± 0.023 | 0.288 ± 0.034 | 0.4805 ± 0.0034 | 0.2277 ± 0.00047 | 0.275 ± 0.048 | 0.481 ± 0.038 | 0.447 ± 0.034 |
| DPKQVRIQSSWL | 0.699 ± 0.016 | 0.721 ± 0.046 | 0.644 ± 0.042 | 0.723 ± 0.013 | 0.6273 ± 0.0026 | 0.663 ± 0.018 | 0.6863 ± 0.0034 | 0.7428 ± 0.0039 |
| DVLLVVVLGRFL | 0.403 ± 0.058 | 0.563 ± 0.063 | 0.344 ± 0.03 | 0.5481 ± 0.0036 | 0.322 ± 0.043 | 0.312 ± 0.027 | 0.535 ± 0.0089 | 0.44 ± 0.066 |
| DVPLFLPLPVSV | 0.357 ± 0.035 | 0.357 ± 0.01 | 0.278 ± 0.032 | 0.452 ± 0.015 | 0.243 ± 0.0078 | 0.297 ± 0.021 | 0.3903 ± 0.0012 | 0.392 ± 0.0097 |
| ELDVRPMVFLVA | 0.4192 ± 0.0018 | 0.4521 ± 0.0023 | 0.346 ± 0.038 | 0.4943 ± 0.0028 | 0.295 ± 0.0069 | 0.337 ± 0.027 | 0.457 ± 0.011 | 0.422 ± 0.007 |
| ESRDRRVGIANW | 0.69 ± 0.036 | 0.743 ± 0.005 | 0.647 ± 0.0092 | 0.77 ± 0.0086 | 0.648 ± 0.014 | 0.647 ± 0.011 | 0.713 ± 0.014 | 0.7252 ± 0.0026 |
| FACLTPFCLCLT | 0.527 ± 0.016 | 0.564 ± 0.015 | 0.422 ± 0.015 | 0.5742 ± 0.0044 | 0.325 ± 0.005 | 0.349 ± 0.013 | 0.51106 ± 0.0004 | 0.431 ± 0.025 |
| FALFCFVIFMSR | 0.22 ± 0.05 | 0.373 ± 0.1 | 0.245 ± 0.081 | 0.398 ± 0.034 | 0.277 ± 0.028 | 0.227 ± 0.068 | 0.381 ± 0.063 | 0.363 ± 0.06 |
| FAVTRVHLACWG | 0.453 ± 0.049 | 0.464 ± 0.0047 | 0.368 ± 0.033 | 0.493 ± 0.0079 | 0.3297 ± 0.0031 | 0.369 ± 0.03 | 0.466 ± 0.022 | 0.4649 ± 0.0013 |
| FCCFFVHMSFFL | 0.26 ± 0.0087 | 0.424 ± 0.024 | 0.298 ± 0.026 | 0.45 ± 0.0054 | 0.2646 ± 0.00099 | 0.282 ± 0.012 | 0.427 ± 0.025 | 0.483 ± 0.12 |
| FCFLLLVSFFFV | 0.234 ± 0.0069 | 0.407 ± 0.21 | 0.252 ± 0.029 | 0.388 ± 0.0052 | 0.211 ± 0.011 | 0.219 ± 0.034 | 0.33 ± 0.014 | 0.31 ± 0.028 |
| FCICRFLFIFLG | 0.44 ± 0.018 | 0.463 ± 0.012 | 0.358 ± 0.033 | 0.4917 ± 0.0036 | 0.3325 ± 0.0029 | 0.294 ± 0.029 | 0.411 ± 0.0063 | 0.336 ± 0.049 |
| VSGSFRVCFRVW | 0.612 ± 0.048 | 0.629 ± 0.0076 | 0.521 ± 0.032 | 0.608 ± 0.015 | 0.538 ± 0.024 | 0.517 ± 0.012 | 0.5981 ± 0.004 | – |
| VWWWGGVGWLMV | 0.571 ± 0.047 | 0.601 ± 0.026 | 0.52 ± 0.01 | 0.625 ± 0.025 | 0.386 ± 0.015 | 0.412 ± 0.019 | 0.544 ± 0.012 | – |
| YVLLDFFFFFLV | 0.216 ± 0.044 | 0.329 ± 0.029 | 0.24 ± 0.017 | 0.356 ± 0.043 | 0.211 ± 0.0032 | 0.182 ± 0.06 | 0.255 ± 0.032 | – |
